Reference: publication PMC12416549 (2024)

T1: TNFR1 (Homo sapiens, UniProt P19438)
T1 chain: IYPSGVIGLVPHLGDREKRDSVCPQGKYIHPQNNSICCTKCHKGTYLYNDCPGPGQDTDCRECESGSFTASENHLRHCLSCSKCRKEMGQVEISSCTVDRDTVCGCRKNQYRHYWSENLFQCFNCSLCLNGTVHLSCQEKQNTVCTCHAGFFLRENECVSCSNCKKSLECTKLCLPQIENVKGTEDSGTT


Target: T1, TNFR1
Assay: yeast display SC50

Row | Binder | apparent Kd (screen)
1 | H78Q (designed binder) MTLQELLREEALRRAEAEAFRYALELLAEKFPEQKEYLLDLAEEIESQIRSLSGVDVEDVRKFLDKEWAWVKELLAEQPAELAEVEAARAARLAELRAEVEAKVAA | 0.869 nM
2 | A15H (designed binder) MTLQELLREEALRRHEAEAFRYALELLAEKFPEQKEYLLDLAEEIESQIRSLSGVDVEDVRKFLDKEWAWVKELLAEHPAELAEVEAARAARLAELRAEVEAKVAA | 0.539 nM
3 | A11W (designed binder) MTLQELLREEWLRRAEAEAFRYALELLAEKFPEQKEYLLDLAEEIESQIRSLSGVDVEDVRKFLDKEWAWVKELLAEHPAELAEVEAARAARLAELRAEVEAKVAA | 0.405 nM
4 | F31Y (designed binder) MTLQELLREEALRRAEAEAFRYALELLAEKYPEQKEYLLDLAEEIESQIRSLSGVDVEDVRKFLDKEWAWVKELLAEHPAELAEVEAARAARLAELRAEVEAKVAA | 0.593 nM
5 | L7S (designed binder) MTLQELSREEALRRAEAEAFRYALELLAEKFPEQKEYLLDLAEEIESQIRSLSGVDVEDVRKFLDKEWAWVKELLAEHPAELAEVEAARAARLAELRAEVEAKVAA | 13.8 nM
6 | R50K (designed binder) MTLQELLREEALRRAEAEAFRYALELLAEKFPEQKEYLLDLAEEIESQIKSLSGVDVEDVRKFLDKEWAWVKELLAEHPAELAEVEAARAARLAELRAEVEAKVAA | 0.539 nM
7 | K62C (designed binder) MTLQELLREEALRRAEAEAFRYALELLAEKFPEQKEYLLDLAEEIESQIRSLSGVDVEDVRCFLDKEWAWVKELLAEHPAELAEVEAARAARLAELRAEVEAKVAA | 0.49 nM
8 | L41R (designed binder) MTLQELLREEALRRAEAEAFRYALELLAEKFPEQKEYLLDRAEEIESQIRSLSGVDVEDVRKFLDKEWAWVKELLAEHPAELAEVEAARAARLAELRAEVEAKVAA | 15.2 nM
9 | E95V (designed binder) MTLQELLREEALRRAEAEAFRYALELLAEKFPEQKEYLLDLAEEIESQIRSLSGVDVEDVRKFLDKEWAWVKELLAEHPAELAEVEAARAARLAVLRAEVEAKVAA | 0.49 nM
10 | R97I (designed binder) MTLQELLREEALRRAEAEAFRYALELLAEKFPEQKEYLLDLAEEIESQIRSLSGVDVEDVRKFLDKEWAWVKELLAEHPAELAEVEAARAARLAELIAEVEAKVAA | 0.539 nM
11 | F63W (designed binder) MTLQELLREEALRRAEAEAFRYALELLAEKFPEQKEYLLDLAEEIESQIRSLSGVDVEDVRKWLDKEWAWVKELLAEHPAELAEVEAARAARLAELRAEVEAKVAA | 0.869 nM
12 | Y37S (designed binder) MTLQELLREEALRRAEAEAFRYALELLAEKFPEQKESLLDLAEEIESQIRSLSGVDVEDVRKFLDKEWAWVKELLAEHPAELAEVEAARAARLAELRAEVEAKVAA | 12.5 nM
13 | K35I (designed binder) MTLQELLREEALRRAEAEAFRYALELLAEKFPEQIEYLLDLAEEIESQIRSLSGVDVEDVRKFLDKEWAWVKELLAEHPAELAEVEAARAARLAELRAEVEAKVAA | 2.48 nM
14 | F31E (designed binder) MTLQELLREEALRRAEAEAFRYALELLAEKEPEQKEYLLDLAEEIESQIRSLSGVDVEDVRKFLDKEWAWVKELLAEHPAELAEVEAARAARLAELRAEVEAKVAA | 0.49 nM
15 | L75G (designed binder) MTLQELLREEALRRAEAEAFRYALELLAEKFPEQKEYLLDLAEEIESQIRSLSGVDVEDVRKFLDKEWAWVKELGAEHPAELAEVEAARAARLAELRAEVEAKVAA | 1.4 nM
16 | A76H (designed binder) MTLQELLREEALRRAEAEAFRYALELLAEKFPEQKEYLLDLAEEIESQIRSLSGVDVEDVRKFLDKEWAWVKELLHEHPAELAEVEAARAARLAELRAEVEAKVAA | 0.79 nM
17 | L38T (designed binder) MTLQELLREEALRRAEAEAFRYALELLAEKFPEQKEYTLDLAEEIESQIRSLSGVDVEDVRKFLDKEWAWVKELLAEHPAELAEVEAARAARLAELRAEVEAKVAA | 26.9 nM

Row | Binder | apparent Kd (screen)
18 | R89P (designed binder) MTLQELLREEALRRAEAEAFRYALELLAEKFPEQKEYLLDLAEEIESQIRSLSGVDVEDVRKFLDKEWAWVKELLAEHPAELAEVEAAPAARLAELRAEVEAKVAA | 24.4 nM
19 | E33N (designed binder) MTLQELLREEALRRAEAEAFRYALELLAEKFPNQKEYLLDLAEEIESQIRSLSGVDVEDVRKFLDKEWAWVKELLAEHPAELAEVEAARAARLAELRAEVEAKVAA | 0.539 nM
20 | E58F (designed binder) MTLQELLREEALRRAEAEAFRYALELLAEKFPEQKEYLLDLAEEIESQIRSLSGVDVFDVRKFLDKEWAWVKELLAEHPAELAEVEAARAARLAELRAEVEAKVAA | 2.73 nM
21 | V57D (designed binder) MTLQELLREEALRRAEAEAFRYALELLAEKFPEQKEYLLDLAEEIESQIRSLSGVDDEDVRKFLDKEWAWVKELLAEHPAELAEVEAARAARLAELRAEVEAKVAA | 3.99 nM
22 | R61H (designed binder) MTLQELLREEALRRAEAEAFRYALELLAEKFPEQKEYLLDLAEEIESQIRSLSGVDVEDVHKFLDKEWAWVKELLAEHPAELAEVEAARAARLAELRAEVEAKVAA | 1.4 nM
23 | A102P (designed binder) MTLQELLREEALRRAEAEAFRYALELLAEKFPEQKEYLLDLAEEIESQIRSLSGVDVEDVRKFLDKEWAWVKELLAEHPAELAEVEAARAARLAELRAEVEPKVAA | 0.956 nM
24 | K35R (designed binder) MTLQELLREEALRRAEAEAFRYALELLAEKFPEQREYLLDLAEEIESQIRSLSGVDVEDVRKFLDKEWAWVKELLAEHPAELAEVEAARAARLAELRAEVEAKVAA | 0.49 nM
25 | I49T (designed binder) MTLQELLREEALRRAEAEAFRYALELLAEKFPEQKEYLLDLAEEIESQTRSLSGVDVEDVRKFLDKEWAWVKELLAEHPAELAEVEAARAARLAELRAEVEAKVAA | 0.539 nM
26 | A102Y (designed binder) MTLQELLREEALRRAEAEAFRYALELLAEKFPEQKEYLLDLAEEIESQIRSLSGVDVEDVRKFLDKEWAWVKELLAEHPAELAEVEAARAARLAELRAEVEYKVAA | 0.653 nM
27 | A91K (designed binder) MTLQELLREEALRRAEAEAFRYALELLAEKFPEQKEYLLDLAEEIESQIRSLSGVDVEDVRKFLDKEWAWVKELLAEHPAELAEVEAARAKRLAELRAEVEAKVAA | 0.49 nM
28 | P79L (designed binder) MTLQELLREEALRRAEAEAFRYALELLAEKFPEQKEYLLDLAEEIESQIRSLSGVDVEDVRKFLDKEWAWVKELLAEHLAELAEVEAARAARLAELRAEVEAKVAA | 0.718 nM
29 | K30L (designed binder) MTLQELLREEALRRAEAEAFRYALELLAELFPEQKEYLLDLAEEIESQIRSLSGVDVEDVRKFLDKEWAWVKELLAEHPAELAEVEAARAARLAELRAEVEAKVAA | 0.539 nM
30 | A80H (designed binder) MTLQELLREEALRRAEAEAFRYALELLAEKFPEQKEYLLDLAEEIESQIRSLSGVDVEDVRKFLDKEWAWVKELLAEHPHELAEVEAARAARLAELRAEVEAKVAA | 0.869 nM
31 | M1D (designed binder) DTLQELLREEALRRAEAEAFRYALELLAEKFPEQKEYLLDLAEEIESQIRSLSGVDVEDVRKFLDKEWAWVKELLAEHPAELAEVEAARAARLAELRAEVEAKVAA | 0.446 nM
32 | V85K (designed binder) MTLQELLREEALRRAEAEAFRYALELLAEKFPEQKEYLLDLAEEIESQIRSLSGVDVEDVRKFLDKEWAWVKELLAEHPAELAEKEAARAARLAELRAEVEAKVAA | 0.653 nM
33 | W70R (designed binder) MTLQELLREEALRRAEAEAFRYALELLAEKFPEQKEYLLDLAEEIESQIRSLSGVDVEDVRKFLDKEWARVKELLAEHPAELAEVEAARAARLAELRAEVEAKVAA | 12.5 nM
34 | L6C (designed binder) MTLQECLREEALRRAEAEAFRYALELLAEKFPEQKEYLLDLAEEIESQIRSLSGVDVEDVRKFLDKEWAWVKELLAEHPAELAEVEAARAARLAELRAEVEAKVAA | 2.05 nM
